In US20260209365A1, “ANTI-COMMON GAMMA CHAIN PROTEINS AND COMPOSITIONS OF MATTER” (SINOMAB BIOSCIENCE LIMITED, priority 2023, published 2026):
Positions count from the first letter of the chain named. Read-outs that look alike come from different tables or passages of the source. Each block holds one binder with its values, some of them ahead of it.

Legend:
Rhesus = biological target: T1, Rhesus (Macaca mulatta, UniProt A0A5F8A3G1); test: flow cytometry, FITC-hSM-05A on HEK-293 cells transfected with full-length rhesus γc, N=3
T1 construct: full length, on the cell surface; the purified extracellular domain is 1.m23; also called rhesus γc protein, full length, on HEK-293 cells
T1 sequence (receptor chain): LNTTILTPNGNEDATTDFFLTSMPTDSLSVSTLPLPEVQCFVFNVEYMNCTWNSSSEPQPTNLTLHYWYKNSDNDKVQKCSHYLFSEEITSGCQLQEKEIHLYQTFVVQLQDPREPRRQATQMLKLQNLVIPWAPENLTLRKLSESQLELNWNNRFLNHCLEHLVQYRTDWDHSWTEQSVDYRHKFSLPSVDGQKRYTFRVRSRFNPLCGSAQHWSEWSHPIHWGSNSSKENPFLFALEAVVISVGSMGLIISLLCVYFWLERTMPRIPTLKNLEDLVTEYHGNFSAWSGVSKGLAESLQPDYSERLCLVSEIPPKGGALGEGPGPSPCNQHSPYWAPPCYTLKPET
Description: In brief, hSM-05A was fluorescently labelled with FITC. HEK-293 cells were transfected with the plasmids expressing the full-length γc proteins from different species for 2 days before the incubation with the fluorescent antibodies for flow cytometry analyses. […] All antibodies were administrated at 33 nM (5 μg/ml). C=non-transfected control; Hu: Humans; Rh: Rhesus monkey; Cy: Cynomolgus; Ma: Common marmoset. N=3 for all groups.
The binding specificities of humanized anti-γc antibodies to native γc proteins were further evaluated by […] binding assay. In brief, human HEK-293 cells were transfected with plasmid expressing full length γc protein from human, rhesus, cynomolgus or common marmoset. Two days later, transfected cells or non-transfected controls were incubated with FITC-conjugated hSM-05A on ice for an hour before analysis by flow cytometry.

[1] = biological target: T2, rabbit γc protein (extracellular domain), purified (rabbit (Oryctolagus cuniculus)); test: ELISA, strip coated with 1 µg/ml rabbit γc, antibody in 5-fold dilutions from 10 to 0.00064 µg/ml, OD 450 nm
T2 construct: also called rabbit (Oryctolagus cuniculus) γc
T2 chain: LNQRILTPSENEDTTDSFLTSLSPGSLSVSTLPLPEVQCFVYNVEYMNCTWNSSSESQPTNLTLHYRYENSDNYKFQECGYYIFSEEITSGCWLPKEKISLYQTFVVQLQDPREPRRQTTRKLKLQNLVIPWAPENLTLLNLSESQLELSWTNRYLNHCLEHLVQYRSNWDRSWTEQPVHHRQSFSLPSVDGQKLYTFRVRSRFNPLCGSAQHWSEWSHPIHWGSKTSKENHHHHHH
Description: (§1) The ELISA strip was coated with 1 μg/ml γc protein from each species. Antibody was diluted 5-fold each from 10 μg/ml to 0.00064 μg/ml.
(§2) Humanized antibodies with back-mutation (hSM-05A and hSM-05E) were tested in the following assays. Binding affinities were investigated in the ELISA assays.

[2] = biological target: T3, common marmoset γc protein (extracellular domain), purified (common marmoset (Callithrix jacchus), UniProt P31785 26-262 (human entry)); test: ELISA, strip coated with 1 µg/ml common marmoset γc, antibody in 5-fold dilutions from 10 to 0.00064 µg/ml, OD 450 nm
T3 construct: also called common marmoset (Callithrix jacchus) γc
T3 chain: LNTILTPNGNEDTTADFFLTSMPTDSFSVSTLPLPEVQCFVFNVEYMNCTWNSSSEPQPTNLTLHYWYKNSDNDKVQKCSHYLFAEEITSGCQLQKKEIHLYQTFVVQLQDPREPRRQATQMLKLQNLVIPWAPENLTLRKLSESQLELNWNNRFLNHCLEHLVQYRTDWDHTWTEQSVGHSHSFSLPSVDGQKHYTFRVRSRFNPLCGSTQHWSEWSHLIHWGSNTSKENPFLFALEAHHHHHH
Description: as §1, §2

[3] = biological target: T4, rhesus γc protein (extracellular domain), purified (rhesus (Macaca mulatta), UniProt P31785 23-254 (human entry)); test: ELISA, strip coated with 1 µg/ml rhesus γc, antibody in 5-fold dilutions from 10 to 0.00064 µg/ml, OD 450 nm
T4 construct: also called rhesus (Macaca mulatta) γc
T4 chain: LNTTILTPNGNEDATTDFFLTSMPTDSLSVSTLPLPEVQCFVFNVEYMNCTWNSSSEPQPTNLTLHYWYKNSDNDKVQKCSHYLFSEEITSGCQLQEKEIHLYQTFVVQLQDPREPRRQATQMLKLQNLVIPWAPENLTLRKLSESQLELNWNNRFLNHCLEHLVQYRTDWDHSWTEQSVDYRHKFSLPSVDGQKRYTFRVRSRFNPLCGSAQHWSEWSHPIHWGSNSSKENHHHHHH
Description: as §1

[4] = biological target: T5, chimpanzee γc protein (extracellular domain), purified (chimpanzee (Pan troglodytes), UniProt P31785 23-262); test: ELISA, strip coated with 1 µg/ml chimpanzee γc, antibody in 5-fold dilutions from 10 to 0.00064 µg/ml, OD 450 nm
T5 construct: also called chimpanzee (Pan troglodytes) γc
T5 sequence: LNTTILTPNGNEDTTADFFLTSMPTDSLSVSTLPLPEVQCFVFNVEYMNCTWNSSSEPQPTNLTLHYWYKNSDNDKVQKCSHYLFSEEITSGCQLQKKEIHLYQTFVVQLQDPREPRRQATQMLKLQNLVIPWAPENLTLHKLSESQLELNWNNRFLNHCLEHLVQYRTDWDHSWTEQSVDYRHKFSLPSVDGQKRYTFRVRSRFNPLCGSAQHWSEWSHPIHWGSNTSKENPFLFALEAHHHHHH
Description: as §1

[5] = biological target: T6, human γc protein (extracellular domain), purified (human (Homo sapiens), UniProt P31785 23-262); test: ELISA, strip coated with 1 µg/ml human γc, antibody in 5-fold dilutions from 10 to 0.00064 µg/ml, OD 450 nm
T6 construct: Either purchased from Sino Biological or in-house generated; also called human common gamma chain; CD132; not shown: which was used i
T6 sequence: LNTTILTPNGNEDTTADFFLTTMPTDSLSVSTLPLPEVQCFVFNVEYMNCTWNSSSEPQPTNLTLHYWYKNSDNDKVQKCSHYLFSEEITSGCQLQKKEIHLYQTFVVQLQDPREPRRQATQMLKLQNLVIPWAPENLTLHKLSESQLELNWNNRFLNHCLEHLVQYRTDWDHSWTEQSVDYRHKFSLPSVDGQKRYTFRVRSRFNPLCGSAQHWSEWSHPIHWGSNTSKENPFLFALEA
Description: as §1

[6] = biological target: T7, cynomolgus γc protein (extracellular domain), purified (cynomolgus (Macaca fascicularis), UniProt P31785 23-254 (human entry)); test: ELISA, strip coated with 1 µg/ml cynomolgus γc, antibody in 5-fold dilutions from 10 to 0.00064 µg/ml, OD 450 nm; curve near baseline up to about 0.08 µg/ml, rises to about 1.35 at 10 µg/ml, no upper plateau
T7 construct: Purchased from Sino Biological or in-house; also called cynomolgus (Macaca fascicularis) γc
T7 chain: T4 chain with E97K
Description: as §1

[7] = biological target: T6, human γc protein (extracellular …); test: ELISA, strip coated with 1 µg/ml human γc, antibody in 5-fold dilutions from 10 to 0.00064 µg/ml, OD 450 nm; remark: listed apart in the source
Description: as §1, §2

[8] = biological target: T2, rabbit γc protein (extracellular …); test: ELISA, strip coated with 1 µg/ml rabbit γc, antibody in 5-fold dilutions from 10 to 0.00064 µg/ml, OD 450 nm
Description: as §1

[9] = biological target: T4, rhesus γc protein (extracellular …); test: ELISA, strip coated with 1 µg/ml rhesus γc, antibody in 5-fold dilutions from 10 to 0.00064 µg/ml, OD 450 nm; curve near baseline up to about 0.4 µg/ml, rises to about 0.8 at 10 µg/ml, no upper plateau
Description: as §1, §2

[10] = biological target: T7, cynomolgus γc protein (extracellular …); test: ELISA, strip coated with 1 µg/ml cynomolgus γc, antibody in 5-fold dilutions from 10 to 0.00064 µg/ml, OD 450 nm; curve rises to about 1.6 at 10 µg/ml, no upper plateau
Description: as §1, §2

- binding result (Rhesus): no binding (tested: 5 µg/ml (33 nM))
- binding result [1]: no binding (tested: 10 µg/ml)
- EC50 [2]: 0.04 mg/L
- binding result [3]: no binding (tested: 10 µg/ml)
- EC50 [4]: 0.06 mg/L
- EC50 [5]: 0.02 mg/L
- EC50 [6]: 9.56 mg/L
B1: hSM-05A, humanized anti-γc antibody with back-mutation (antibody, V domains shown)
VH: QVQLVQSGAEVLKPGASVKVSCKASGYTFTEYTMHWVKQARGQRLEWIGGIDPYNGGATYNQRFKGKATLTTDTSTSTAYMELRNLRSDDTAVYYCARRRLYYGNALDYWGQGTLVTVSS
VL: DIVMTQSPLSLPVTPGEQASISCRSSQSLVHSNGNTYLHWYLQKPGQSPQLLIYKVSSRFSGVPDRFSGSGSGTDFTLKISRVEAEDVGVYFCSQTTHVPFTFGSGTKLEIKR
notes: Full-length humanized antibody; also called humanized (h) SM-05A; hbSM-05A

- EC50 [7]: 0.02 mg/L
- binding result [8]: no binding (tested: 10 µg/ml)
- EC50 [2]: 0.17 mg/L
- EC50 [4]: 0.17 mg/L
- EC50 [9]: 6.3 mg/L
- EC50 [10]: 5.78 mg/L
B2: hSM-05E, humanized anti-γc antibody with back-mutation (antibody, V domains shown)
VH: B1 VH with Y54N, N55T, A58V, R63K, L101R, N105Y
VL: B1 VL with L29I, H39E, S58N, T96S, T102M
notes: Full-length humanized antibody; also called humanized SM-05E; hbSM-05E
